Test results published in patent publication US20160136234A1.

How the values were obtained:
Assay in all cases: cell-based or functional assay
PKCβI (h) (human) = PKCβI (h) (human) (UniProt P05771)
[1] = target: T1, Tec (h) activated (human) (UniProt P42680)
T1 sequence (looked up): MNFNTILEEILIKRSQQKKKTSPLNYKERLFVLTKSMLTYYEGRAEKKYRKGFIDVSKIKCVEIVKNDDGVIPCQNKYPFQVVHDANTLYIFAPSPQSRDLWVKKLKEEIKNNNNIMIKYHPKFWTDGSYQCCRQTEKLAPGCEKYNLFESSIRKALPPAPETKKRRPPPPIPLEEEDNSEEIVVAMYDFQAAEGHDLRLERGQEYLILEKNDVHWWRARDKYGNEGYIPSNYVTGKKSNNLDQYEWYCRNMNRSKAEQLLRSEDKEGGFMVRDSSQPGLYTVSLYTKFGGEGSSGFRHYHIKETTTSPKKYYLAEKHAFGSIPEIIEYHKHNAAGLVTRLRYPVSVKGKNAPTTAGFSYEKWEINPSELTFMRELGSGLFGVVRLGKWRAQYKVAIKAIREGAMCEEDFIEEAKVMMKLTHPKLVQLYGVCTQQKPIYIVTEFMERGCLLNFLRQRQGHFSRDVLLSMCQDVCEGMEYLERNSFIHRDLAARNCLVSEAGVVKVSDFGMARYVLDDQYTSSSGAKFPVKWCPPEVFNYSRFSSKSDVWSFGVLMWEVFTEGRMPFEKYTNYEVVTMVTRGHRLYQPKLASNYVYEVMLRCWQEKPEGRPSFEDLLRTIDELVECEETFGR

SGK (h) (human) = SGK (h) (human) (UniProt O00141)
FGFR1 (h) (human) = FGFR1 (h) (human) (UniProt P11362)
ARK5 (h) (human) = target: T2, ARK5 (h) (human) (UniProt O60285)
T2 sequence (looked up): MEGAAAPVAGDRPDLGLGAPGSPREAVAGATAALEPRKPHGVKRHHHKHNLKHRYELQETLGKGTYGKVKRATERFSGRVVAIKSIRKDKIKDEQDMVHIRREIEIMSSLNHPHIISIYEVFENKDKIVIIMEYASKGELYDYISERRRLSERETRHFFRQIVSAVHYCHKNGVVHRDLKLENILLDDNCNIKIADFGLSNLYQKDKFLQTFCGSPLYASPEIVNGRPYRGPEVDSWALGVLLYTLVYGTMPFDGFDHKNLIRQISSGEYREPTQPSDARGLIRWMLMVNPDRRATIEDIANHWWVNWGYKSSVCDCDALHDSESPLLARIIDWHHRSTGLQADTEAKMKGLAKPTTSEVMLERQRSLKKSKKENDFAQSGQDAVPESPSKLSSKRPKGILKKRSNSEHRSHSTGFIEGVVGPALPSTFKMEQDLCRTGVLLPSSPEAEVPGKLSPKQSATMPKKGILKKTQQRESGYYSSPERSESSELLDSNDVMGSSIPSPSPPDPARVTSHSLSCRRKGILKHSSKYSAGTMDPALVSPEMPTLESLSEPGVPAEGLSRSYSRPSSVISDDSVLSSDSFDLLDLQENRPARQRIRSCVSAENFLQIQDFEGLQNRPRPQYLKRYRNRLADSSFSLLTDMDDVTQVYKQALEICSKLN

GSK3β (h) (human) = GSK3β (h) (human) (UniProt P49841)
TSSK2 (h) (human) = target: T3, TSSK2 (h) (human) (UniProt Q96PF2)
T3 sequence (looked up): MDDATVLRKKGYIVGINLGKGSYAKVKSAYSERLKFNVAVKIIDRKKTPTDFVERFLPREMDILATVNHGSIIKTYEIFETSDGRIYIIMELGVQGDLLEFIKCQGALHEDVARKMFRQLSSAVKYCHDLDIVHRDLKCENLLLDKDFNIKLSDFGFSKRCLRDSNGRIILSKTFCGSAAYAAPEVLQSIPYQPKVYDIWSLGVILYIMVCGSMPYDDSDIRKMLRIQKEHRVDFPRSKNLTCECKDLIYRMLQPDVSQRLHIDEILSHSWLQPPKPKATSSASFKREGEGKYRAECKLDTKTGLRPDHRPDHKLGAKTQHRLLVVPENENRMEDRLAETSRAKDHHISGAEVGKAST

Pim-2 (h) (human) = Pim-2 (h) (human) (UniProt Q9P1W9)
PRAK (h) (human) = PRAK (h) (human) (UniProt Q8IW41)
IKKβ (h) (human) = target: T4, IKKβ (h) (human) (UniProt O14920)
T4 sequence (looked up): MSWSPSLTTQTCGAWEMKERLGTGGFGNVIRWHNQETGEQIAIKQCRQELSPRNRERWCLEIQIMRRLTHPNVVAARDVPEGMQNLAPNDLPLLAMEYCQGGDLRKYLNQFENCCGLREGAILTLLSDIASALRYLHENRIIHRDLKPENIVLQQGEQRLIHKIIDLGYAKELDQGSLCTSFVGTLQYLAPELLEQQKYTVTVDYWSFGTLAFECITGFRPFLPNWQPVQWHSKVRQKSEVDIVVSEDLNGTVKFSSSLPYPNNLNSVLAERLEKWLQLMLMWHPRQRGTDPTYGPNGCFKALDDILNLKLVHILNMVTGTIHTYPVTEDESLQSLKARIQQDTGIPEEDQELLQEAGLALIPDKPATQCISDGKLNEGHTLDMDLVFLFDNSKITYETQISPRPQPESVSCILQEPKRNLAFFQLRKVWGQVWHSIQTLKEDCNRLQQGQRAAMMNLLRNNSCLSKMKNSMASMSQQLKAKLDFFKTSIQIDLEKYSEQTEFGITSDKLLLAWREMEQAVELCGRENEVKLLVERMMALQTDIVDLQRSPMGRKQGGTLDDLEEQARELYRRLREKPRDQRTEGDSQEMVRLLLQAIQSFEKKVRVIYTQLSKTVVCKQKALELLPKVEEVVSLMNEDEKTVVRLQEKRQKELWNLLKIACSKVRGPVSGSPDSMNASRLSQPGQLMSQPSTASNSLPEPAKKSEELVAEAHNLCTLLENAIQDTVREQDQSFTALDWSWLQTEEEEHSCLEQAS

Sequence of PRAK (h) (human) (Q8IW41 whole entry): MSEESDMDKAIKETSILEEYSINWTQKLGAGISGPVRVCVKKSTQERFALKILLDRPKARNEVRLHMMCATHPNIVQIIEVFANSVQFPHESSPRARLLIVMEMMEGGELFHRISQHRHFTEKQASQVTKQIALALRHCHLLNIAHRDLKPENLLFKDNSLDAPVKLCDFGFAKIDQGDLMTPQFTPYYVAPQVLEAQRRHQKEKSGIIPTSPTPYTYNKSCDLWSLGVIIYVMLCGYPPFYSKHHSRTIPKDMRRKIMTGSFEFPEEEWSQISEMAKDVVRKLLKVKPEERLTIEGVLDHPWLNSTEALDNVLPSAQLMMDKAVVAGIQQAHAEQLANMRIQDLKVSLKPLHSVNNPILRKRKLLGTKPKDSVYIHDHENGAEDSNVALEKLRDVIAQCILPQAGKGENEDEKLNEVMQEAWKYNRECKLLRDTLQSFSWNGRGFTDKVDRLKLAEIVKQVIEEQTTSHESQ
Sequence of FGFR1 (h) (human) (P11362 456-765 limits assumed): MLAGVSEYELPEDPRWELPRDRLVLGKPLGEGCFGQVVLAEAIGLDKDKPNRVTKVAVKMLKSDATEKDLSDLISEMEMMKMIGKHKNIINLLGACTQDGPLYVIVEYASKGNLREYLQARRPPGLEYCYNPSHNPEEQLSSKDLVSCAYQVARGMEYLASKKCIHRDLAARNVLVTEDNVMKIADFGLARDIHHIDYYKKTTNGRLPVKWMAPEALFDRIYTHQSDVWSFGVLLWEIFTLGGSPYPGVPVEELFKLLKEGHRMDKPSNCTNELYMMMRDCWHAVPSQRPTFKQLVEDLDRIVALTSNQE
Sequence of SGK (h) (human) (O00141 60-431 limits assumed): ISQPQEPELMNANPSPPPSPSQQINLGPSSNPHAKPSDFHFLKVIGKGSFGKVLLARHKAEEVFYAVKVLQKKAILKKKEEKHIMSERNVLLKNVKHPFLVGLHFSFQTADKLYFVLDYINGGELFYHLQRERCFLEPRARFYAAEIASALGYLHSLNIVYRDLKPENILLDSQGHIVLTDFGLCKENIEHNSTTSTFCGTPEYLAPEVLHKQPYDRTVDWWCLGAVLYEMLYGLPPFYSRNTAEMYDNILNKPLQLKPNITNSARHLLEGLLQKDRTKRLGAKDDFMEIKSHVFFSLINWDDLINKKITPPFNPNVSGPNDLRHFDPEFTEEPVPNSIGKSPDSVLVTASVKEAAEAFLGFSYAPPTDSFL

In the case of MMI-0300 (peptide), the % activity at 100 µM (PKCβI (h) (human)) is reported as 78%, the % activity at 100 µM [1] is reported as 56% and the % activity at 100 µM (SGK (h) (human)) is reported as 48%. It also gave a % activity at 100 µM (FGFR1 (h) (human)) of 55%, a % activity at 100 µM (ARK5 (h) (human)) of 78% and a % activity at 100 µM (GSK3β (h) (human)) of 205%. It also gave a % activity at 100 µM (TSSK2 (h) (human)) of 98%, a % activity at 100 µM (Pim-2 (h) (human)) of 76% and a % activity at 100 µM (PRAK (h) (human)) of 128%. The % activity at 100 µM (IKKβ (h) (human)) was 84%.
